In the DeepSol protein solubility set:

Assay: soluble on expression in E. coli; label from the status in PepcDB or PDB records

Sequence	soluble on expression in E. coli
MCMNTQSPPSPHDPHGAAALPFRLWTAEERRASLDTALREWRDGEDVWVYGYGSLIWRPDFDFVERRLATLHGHHRALLWSRVNRGTPECPGLVFGLDRGGSCRGVVYRLAGRQVPDYFPALWDREMSTGAYLPRWLRCATEHGPVNALVFIMNRANPAYIRALPEPELLAIVRRASGRYGPCTEYVVQTAQALRQAGIRDARLEQIARQLEAEVHPLGVLEHHHHHH	soluble
MAHHHHHHMTAPITGPMLLGAASVDVLRSMLTLDPFQCLVAQRLCEELSCQRFPKVTLLIFKSMPDPRLLQLRSSVGEEVTVTVSRLNDLRCKFTLGDKANYEHLYNMRTPAKPRTVCTFDIVLPTSRLTGLSRCIDHLIAAAERMVMPRITVEALCCTEQDERRKIVREEKDHWDFLFHGLRVGSFITVLRRLPSITAMHAPPIPHDYTFSAALSNPGFVLPSHYCGRLATVPTGAKGVSTPFIAIAEPAIPTGAKVSIRCQLIRGNQGQILGGGYYFGVCTPSFHWKHKDLNVHTGEVWALHDMDDSPWRLRHLRPDATFPVAAEPRCIIVSGDIIRLYIDRTARVMHAFRTPVNGDEIPLGLHL	not soluble
MNLTNYHSHTLYCDGRAGMEDFIRFAISRGFTSYGISSHAPLPFPTHWTMEWDRMDDYLDEFTRMKEKYASEIELAVGLEIDYLNEDSNPSVRRFQELPLDYRIGSVHLLYNDRDEVVDIDVCAEVFRDIVDQHFGGDLDRVIHLYYDRLLRMVELGGFDILGHADKMHHNAACYRPGLLDESWYDALIHDYFSAVAAKGYIVEINTKALHHLNTFFPNERYFPLLKELGVRVQVNSDSHYPERINSGRPEALAALQKAGFETVTEWHGGKWIEMPL	not soluble
MDYTPHTEEEIREMLRRVGAASLEDLFAHLPKEILSPPIDLPEPLPEWKVLEELRRLAAQNLPAHKAFLGGGVRSHHVPPVVQALAARGEFLTAYTPYQPEVSQGVLQATFEYQTMIAELAGLEIANASMYDGATALAEGVLLALRETGRMGVLVSQGVHPEYRAVLRAYLEAVGAKLLTLPLEGGRTPLPEVGEEVGAVVVQNPNFLGALEDLGPFAEAAHGAGALFVAVADPLSLGVLKPPGAYGADIAVGDGQSLGLPMGFGGPHFGFLATKKAFVRQLPGRLVSETVDVEGRRGFILTLQAREQYIRRAKAKSNITTNAQLTALMGAMYLAALGPEGLREVALKSVEMAHKLHALLLEVPGVRPFTPKPFFNEFALALPKDPEAVRRALAERGFHGATPVPREYGENLALFAATELHEEEDLLALREALKEVLA	soluble
MDAKETSATDLKRPREEDDNGGAATMETENGDQKKEPACFSTVIPGWFSEMSPMWPGEAHSLKVEKVLFQGKSDYQDVIVFQSATYGKVLVLDGVIQLTERDECAYQEMITHLPLCSIPNPKKVLVIGGGDGGVLREVARHASIEQIDMCEIDKMVVDVSKQFFPDVAIGYEDPRVNLVIGDGVAFLKNAAEGSYDAVIVDSSDPIGPAKELFEKPFFQSVARALRPGGVVCTQAESLWLHMDIIEDIVSNCREIFKGSVNYAWTSVPTYPSGVIGFMLCSTEGPDVDFKHPLNPIDESSSKSNGPLKFYNAEIHSAAFCLPSFAKKVIESKAN	soluble
MPYKAKSDLPDNVRNVLPAHAQDIYKEAFNSAWEQYKDKADRRDDASREETAHKVAWAAVKNDYEKGEDDKWHKKK	not soluble
MVTNKLITLLPDLATFIVVVNEGSFTAAAKKLGVTPSALSKLITRLENALSVKLFERTTRSLLITESGKKIYQQSVIMVEAAQQAVDISSSEHTVPSGSLTVAAPKAFLTIVLQPLITPFLTKYPKIQLKLRASDGDIDMIAQGIDVVFRLTDKPTEGLVMKEIGKVNLSLCASPTYLEERGIPHLPQELANHDCLFLGETTTDHIWEFVKGTESHVIAVSGRYAVNHSQMRLNGVKDGFGIGIFPDFVIKEALANNEVISVLSDWQIKGNYHGVIAMQYAQNKYIPSRLKVFTEFVKENLMKSKVNDERT	not soluble
MSWIYDAHIHLSDPEYKSDIDMILNYMDLLKIKACCVSMDIETSNETMALYEKSKNVLPFIGIHPEMAQKSSEPVYELIEKNNEIISGIGEIGLDRTYINSEDEWEIQKDVFSKQLSLAEKFNKPVSIHSRKTLSDIFEILPSYKIPGILLHWFDGNKSQLKTAMENEYFVSYGPLLVYANDKQVLLSKTDPSRLLVETDGPVRFSHCFEYKTTEIMFVPSVLFCASKILHTSYENLLTQIEDNSKKFLGI	soluble
